Series [1] deals with T1, MiGAIP1 (DELLA) (Mangifera indica, UniProt UPI001CFB1029 1-553).
T1 sequence: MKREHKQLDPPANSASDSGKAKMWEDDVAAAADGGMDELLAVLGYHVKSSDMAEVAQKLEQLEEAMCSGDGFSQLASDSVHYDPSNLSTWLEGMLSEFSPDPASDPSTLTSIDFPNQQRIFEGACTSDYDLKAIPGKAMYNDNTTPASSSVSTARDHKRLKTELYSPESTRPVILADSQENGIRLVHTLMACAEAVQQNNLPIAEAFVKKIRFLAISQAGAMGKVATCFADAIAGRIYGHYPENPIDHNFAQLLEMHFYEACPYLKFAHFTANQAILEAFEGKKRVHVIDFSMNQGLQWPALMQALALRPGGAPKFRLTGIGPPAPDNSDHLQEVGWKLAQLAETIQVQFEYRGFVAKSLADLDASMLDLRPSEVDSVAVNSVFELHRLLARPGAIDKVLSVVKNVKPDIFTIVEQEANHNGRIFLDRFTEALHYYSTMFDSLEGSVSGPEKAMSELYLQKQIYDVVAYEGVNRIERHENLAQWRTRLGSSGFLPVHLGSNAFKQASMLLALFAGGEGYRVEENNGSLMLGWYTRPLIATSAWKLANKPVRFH
Nature of the series: EMSA; LightShift Chemiluminescent EMSA kit (Thermo) per manufacturer; buffer, salt, pH and temperature not stated. As to conditions: protein: recombinant; tags: GST (pGEX4T); label: 3' biotin; blunt.

Series [2] deals with T2, MiPIF5 (Mangifera indica, UniProt UPI001CFAADE4 1-539).
T2 sequence: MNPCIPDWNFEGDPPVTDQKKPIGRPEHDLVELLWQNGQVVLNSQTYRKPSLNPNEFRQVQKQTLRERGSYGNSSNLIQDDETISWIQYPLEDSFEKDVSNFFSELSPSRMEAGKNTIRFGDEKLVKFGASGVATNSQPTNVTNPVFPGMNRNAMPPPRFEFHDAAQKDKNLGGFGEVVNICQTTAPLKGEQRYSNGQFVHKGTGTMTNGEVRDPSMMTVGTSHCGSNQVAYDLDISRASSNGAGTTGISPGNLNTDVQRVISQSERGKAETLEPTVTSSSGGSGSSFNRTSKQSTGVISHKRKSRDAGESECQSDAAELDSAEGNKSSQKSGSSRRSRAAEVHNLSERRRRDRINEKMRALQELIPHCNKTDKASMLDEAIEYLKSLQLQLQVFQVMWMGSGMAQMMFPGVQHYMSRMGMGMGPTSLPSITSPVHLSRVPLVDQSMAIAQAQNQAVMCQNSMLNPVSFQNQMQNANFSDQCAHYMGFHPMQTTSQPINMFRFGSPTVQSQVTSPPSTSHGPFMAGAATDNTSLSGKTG
The series is described as above. As to conditions: protein: recombinant; tags: GST (pGEX4T); chain copies: 2; label: 3' biotin; blunt.

These results are taken from article PMC12205875, “CRY1–GAIP1 complex mediates blue light to hinder the repression of PIF5 on AGL5 to promote carotenoid biosynthesis in mango fruit”.

B1: ProMiAGL5-Probe (MiGAIP1) (dsDNA)
DNA 1: TTTCAACAATCAAGAAATGAGAAAGGAAAGAAGAAAAAAGAAAGAAAAAAAAAAAAAGTGTCT
DNA 2: AGACACTTTTTTTTTTTTTCTTTCTTTTTTCTTCTTTCCTTTCTCATTTCTTGATTGTTGAAA
Take B1: the binding result in series [1] is reported as “binds”.

B2: ProMiAGL5-Probe (MiPIF5) (dsDNA)
DNA 1: GAGCATCACATGGGAGTCTATTTTCACTTTGTAATTTGAAAAGGAAAGAGATATATAC
DNA 2: GTATATATCTCTTTCCTTTTCAAATTACAAAGTGAAAATAGACTCCCATGTGATGCTC
For B2, the binding result in series [2] was “binds”.
